Results on one substance are retold here after PMC7587188.

In this test the target is B-Glucosidase. As to the kind of experiment: ITC; 1 mM BSA in the syringe, 10 uL injections into 66 uM B-GLU in the cell; 25 °C; PBS pH 6; VP-ITC; fitted with AFFINImeter, independent sites approach (GoF = 50.81%).

The term Kd denotes the free concentration of one partner at which half of the binding sites on the other are occupied at equilibrium, for simple one-to-one binding. One may read the stoichiometry N as the number of molecules, sites or subunits per partner or assembly. Take “Bovine Serum Albumin (from UniProt P02769 25-607) (natural protein)”: the Ka turned out to be 530000 M⁻¹, the Kd is 1900 nM, the dH is -0.26 kcal/mol and the stoichiometry N was 1.23.
